These results are taken from article PMC10975748.

This assay addresses voltage-gated potassium channel Kv1.3 (UniProt P22001).

voltage-gated potassium channel Kv1.3, sequence (P22001 whole entry): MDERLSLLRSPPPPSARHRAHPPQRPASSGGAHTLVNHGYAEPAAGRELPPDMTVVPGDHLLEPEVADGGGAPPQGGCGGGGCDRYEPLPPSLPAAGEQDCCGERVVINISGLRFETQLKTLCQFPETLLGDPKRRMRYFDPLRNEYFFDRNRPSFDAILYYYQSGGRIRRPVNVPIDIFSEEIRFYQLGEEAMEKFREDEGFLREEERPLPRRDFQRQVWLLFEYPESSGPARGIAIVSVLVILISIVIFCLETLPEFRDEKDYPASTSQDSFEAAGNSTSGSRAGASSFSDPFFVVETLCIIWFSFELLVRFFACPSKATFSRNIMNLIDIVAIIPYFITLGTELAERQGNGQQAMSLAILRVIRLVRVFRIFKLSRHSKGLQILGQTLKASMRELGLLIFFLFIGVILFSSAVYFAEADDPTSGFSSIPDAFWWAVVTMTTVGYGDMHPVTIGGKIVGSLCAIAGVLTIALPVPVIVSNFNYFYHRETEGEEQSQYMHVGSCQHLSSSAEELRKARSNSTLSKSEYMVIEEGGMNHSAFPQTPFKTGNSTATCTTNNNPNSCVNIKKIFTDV

As for mCherry-Vm24, the Kd from electrophysiological assays worked out at 275 pM.
